Test results as given in the supplement of paper PMC10126150.
± gives the standard deviation of the averaged measurements.

System: ATP
Test: switch fluorescence ratio, 500 uM ATP over buffer (Cy3 cluster intensity, sum of 5 cycles each) (fold (ratio)); higher = stronger signal-on switching upon ATP binding; sequences stand for … in TCGTCGGCAGCGTCAGATGTGTATAAGAGACAGTTTTTTTTTTTTTTTTTTTTTTTTT…TC
Conditions: aptamer strand: ATP DNA aptamer (quencher-CACCTGGGGGAGTATTGCGGAGGAAGG + anchor), 100 nM annealed; ATP concentration: 500 uM
Outline: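 Values give the fluorescence ratio for each switch-domain sequence, averaged from per-cluster ratios of summed target-cycle to summed buffer-cycle Cy3 intensity. The Cy3-labelled switching-strand clusters sat on a modified Illumina MiSeq flow-cell, were annealed to 100 nM quencher-labelled ATP aptamer, and were imaged in selection buffer, then after 15 min with 500 uM ATP at 22 °C. Five cycles ran with NaOH stripping and re-annealing between them, and clusters outside 100-1000 RFU were excluded.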
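Note: ATP exposure 15 min at 22 °C before imaging.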

GGGTTGAGGA
switch fluorescence ratio: 1.01 ± 0.05

GGGTTGAGGG
switch fluorescence ratio: 1 ± 0.027

GGGTTGAGTT
switch fluorescence ratio: 0.9849 ± 0.0035

GGGTTGATGC
switch fluorescence ratio: 1.02 ± 0.041

GGGTTGCATG
switch fluorescence ratio: 0.976 ± 0.016

GGGTTGCCCT
switch fluorescence ratio: 0.982 ± 0.033

GGGTTGCTGT
switch fluorescence ratio: 1.03 ± 0.1

GGGTTGGGAG
switch fluorescence ratio: 0.998 ± 0.044

GGGTTGGGAT
switch fluorescence ratio: 0.995 ± 0.021

GGGTTGGGTT
switch fluorescence ratio: 1.05 ± 0.18

GGGTTGGTCA
switch fluorescence ratio: 0.994 ± 0.0094

GGGTTGTATT
switch fluorescence ratio: 0.991 ± 0.031

GGGTTGTGTG
switch fluorescence ratio: 0.991 ± 0.11

GGGTTGTTTT
switch fluorescence ratio: 0.9944 ± 0.0082

GGGTTTCAGA
switch fluorescence ratio: 1.01 ± 0.028

GGGTTTGCGA
switch fluorescence ratio: 1.02 ± 0.048

GGGTTTGCTG
switch fluorescence ratio: 1.01 ± 0.076

GGGTTTGTAG
switch fluorescence ratio: 1.01 ± 0.056

GGGTTTTATG
switch fluorescence ratio: 0.991 ± 0.033

GGGTTTTGCG
switch fluorescence ratio: 0.9735 ± 0.0082

GGGTTTTGGG
switch fluorescence ratio: 0.979 ± 0.064

GGGTTTTGTA
switch fluorescence ratio: 0.974 ± 0.018

GGTAAAAAAG
switch fluorescence ratio: 1 ± 0.028

GGTAAAAGAT
switch fluorescence ratio: 0.977 ± 0.015

GGTAAACGCG
switch fluorescence ratio: 0.977 ± 0.016

GGTAAAGATA
switch fluorescence ratio: 0.986 ± 0.019

GGTAAAGGCG
switch fluorescence ratio: 0.9621 ± 0.0048

GGTAAATTGT
switch fluorescence ratio: 1.01 ± 0.028

GGTAACATGG
switch fluorescence ratio: 1.01 ± 0.021

GGTAATGGTA
switch fluorescence ratio: 0.9702 ± 0.0045

GGTAATTATT
switch fluorescence ratio: 0.951 ± 0.067

GGTAATTGAA
switch fluorescence ratio: 0.9878 ± 0.0076

GGTACACAGC
switch fluorescence ratio: 1.02 ± 0.015

GGTACGGAAA
switch fluorescence ratio: 1.02 ± 0.016

GGTACGGCAA
switch fluorescence ratio: 1.09 ± 0.019

GGTACGGGGA
switch fluorescence ratio: 1.03 ± 0.051

GGTACGTTTG
switch fluorescence ratio: 0.993 ± 0.033

GGTAGACGGT
switch fluorescence ratio: 1.02 ± 0.049

GGTAGAGATT
switch fluorescence ratio: 1.02 ± 0.037

GGTAGAGTAC
switch fluorescence ratio: 1.02 ± 0.046

GGTAGCAGCG
switch fluorescence ratio: 1.05 ± 0.059

GGTAGGAGAG
switch fluorescence ratio: 0.987 ± 0.0057

GGTAGGAGTA
switch fluorescence ratio: 0.932 ± 0.051

GGTAGGGATC
switch fluorescence ratio: 1.017 ± 0.0042

GGTAGGGCGA
switch fluorescence ratio: 1.01 ± 0.026

GGTAGGTAGG
switch fluorescence ratio: 1.01 ± 0.038

GGTATAAAGG
switch fluorescence ratio: 0.996 ± 0.014

GGTATACGTA
switch fluorescence ratio: 0.935 ± 0.071

GGTATAGTTG
switch fluorescence ratio: 0.993 ± 0.041

GGTATATGTC
switch fluorescence ratio: 0.994 ± 0.05

GGTATATTGG
switch fluorescence ratio: 1.01 ± 0.012

GGTATCAGGA
switch fluorescence ratio: 0.978 ± 0.013

GGTATGGACA
switch fluorescence ratio: 0.997 ± 0.013

GGTATGGATA
switch fluorescence ratio: 1 ± 0.027

GGTATGGGGT
switch fluorescence ratio: 1.03 ± 0.058

GGTATGGGTG
switch fluorescence ratio: 1.023 ± 0.0055

GGTATGGTGG
switch fluorescence ratio: 1.01 ± 0.036

GGTATTATTT
switch fluorescence ratio: 0.995 ± 0.023

GGTATTCGAG
switch fluorescence ratio: 1.02 ± 0.0013

GGTATTGAGG
switch fluorescence ratio: 0.9871 ± 0.003

GGTCACGTAT
switch fluorescence ratio: 1.05 ± 0.014

GGTCAGGGTA
switch fluorescence ratio: 1.01 ± 0.04

GGTCATATGC
switch fluorescence ratio: 1.04 ± 0.013

GGTCATGACG
switch fluorescence ratio: 0.923 ± 0.046

GGTCATGTTG
switch fluorescence ratio: 0.997 ± 0.051

GGTCATTTGT
switch fluorescence ratio: 1 ± 0.041

GGTCCGATTA
switch fluorescence ratio: 1 ± 0.056

GGTCCTAGAA
switch fluorescence ratio: 0.9724 ± 0.0011

GGTCCTAGTC
switch fluorescence ratio: 0.946 ± 0.12

GGTCCTGCAA
switch fluorescence ratio: 1.76 ± 1.1

GGTCCTGTGG
switch fluorescence ratio: 1.005 ± 0.006

GGTCGAAGGC
switch fluorescence ratio: 0.9859 ± 0.0069

GGTCGCACCA
switch fluorescence ratio: 1.02 ± 0.033

GGTCGCAGTT
switch fluorescence ratio: 0.999 ± 0.022

GGTCGCCCAG
switch fluorescence ratio: 1.01 ± 0.035

GGTCGGGCTT
switch fluorescence ratio: 1.01 ± 0.034

GGTCGTGCGG
switch fluorescence ratio: 1 ± 0.018
